Data as given in the RNAGym collection of RNA variant scans (doi:10.1093/molbev/msab373).

B1: Azoarcus group I ribozyme (parent)
chain: GUGCCUUGCGCCGGGAAACCACGCAAGGGAUGGUGUCAAAUUCGGCGAAACCUAAGCGCCCGCCCGGGCGUAUGGCAACGCCGAGCCAAGCUUCGGCGCCUGCGCCGAUGAAGGUGUAGAGACUAGACGGCACCCACCUAAGGCAAACGCUAUGGUGAAGGCAUAGUCCAGGGAGUGGCGAAAGUCACACAAACCGG

Variants of: B1
Assay: reverse-splicing fitness (ratio to wild type); higher = more active; in vitro selection; Mg2+ level not given
In short: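 An in vitro group I ribozyme library with randomized positions was T7-transcribed and gel-purified. In triplicate, 10 pmol RNA in EPPS pH 7.5 was reacted with 50 pmoles of a 30-nt RNA substrate for 1 h at 37 °C across several added MgCl2 levels (1–48 mM), then stopped with EDTA. Products were reverse transcribed from a substrate-complementary primer, PCR-amplified and sequenced (HiSeq 4000). Fitness is a variant's read proportion after selection over that before, normalised to wild type.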
With GUGCCUUGCGCCGGGAAACCACGCAAGGGAUGGUGUCAAAUUCGGCGAAACCUAAGCGCCCGCCCGGGCGUAUGGCAACGCUGAGCCAAGCUUCGGCGCCUGCGCCGAUGCAGGUGUAGAGACUAGACGGCACCCACCUAAGGCAAACGGUAUGGUGAAGGCAUAGUCAAGGGAGUGGCGAAAGUCACACAAACCGG [C82U A111C C150G C169A] the reverse-splicing fitness was 0.00807.
With GUGCCUUGCGCCGGGAAACCACGCAAGGGAUGGUGUCAAAUUCGGCGAAACCUAAGCGCCCGCCCGGGCGUAUGGCAACGCUGAGCCAAGCUUCGGCGCCUGCGCCGAUGCAGGUGUAGAGACUAGACGGCACCCACCUAAGGCAAACGAUAUGGUGAAGGCAUAGUCAAGGGAGGGGCGAAAGUCACACAAACCGG [C82U A111C C150A C169A U176G] the reverse-splicing fitness was 0.00821.
In the case of GUGCCUUGCGCCGGGAAACCACGCAAGGGAUGGUGUCAAAUUCGGCGAAACCUAAGCGCCCGCCCGGGCGUAUGGCAACGCUGAGCCAAGCUUCGGCGCCUGCGCCGAUGCAGGUGUAGAGACUAGACGGCACCCACCUAAGGCAAACGGUAUGGUGAAGGCAUAGUCCAGGGAGUGGCGAAAGUCACACAAACCGG [C82U A111C C150G], the reverse-splicing fitness is reported as 0.0163.
Work on GUGCCUUGCGCCGGGAAACCACGCAAGGGAUGGUGUCAAAUUCGGCGAAACCUAAGCGCCCGCCCGGGCGUAUGGCAACGCUGAGCCAAGCUUCGGCGCCUGCGCCGAUGCAGGUGUAGAGACUAGACGGCACCCACCUAAGGCAAACGGUAUGGUGAAGGCAUAGUCAAGGGAGAGGCGAAAGUCACACAAACCGG [C82U A111C C150G C169A U176A] yielded a reverse-splicing fitness of 0.00878.
For GUGCCUUGCGCCGGGAAACCACGCAAGGGAUGGUGUCAAAUUCGGCGAAACCUAAGCGCCCGCCCGGGCGUAUGGCAACGCUGAGCCAAGCUUCGGCGCCUGCGCCGAUGCAGGUGUAGAGACUAGACGGCACCCACCUAAGGCAAACGAUAUGGUGAAGGCAUAGUCCAGGGAGAGGCGAAAGUCACACAAACCGG [C82U A111C C150A U176A], the reverse-splicing fitness was 0.0143.
With GUGCCUUGCGCCGGGAAACCACGCAAGGGAUGGUGUCAAAUUCGGCGAAACCUAAGCGCCCGCCCGGGCGUAUGGCAACGCUGAGCCAAGCUUCGGCGCCUGCGCCGAUGCAGGUGUAGAGACUAGACGGCACCCACCUAAGGCAAACGAUAUGGUGAAGGCAUAGUCCAGGGAGGGGCGAAAGUCACACAAACCGG [C82U A111C C150A U176G] the reverse-splicing fitness was 0.00812.
Variant GUGCCUUGCGCCGGGAAACCACGCAAGGGAUGGUGUCAAAUUCGGCGAAACCUAAGCGCCCGCCCGGGCGUAUGGCAACGCUGAGCCAAGCUUCGGCGCCUGCGCCGAUGCAGGUGUAGAGACUAGACGGCACCCACCUAAGGCAAACGAUAUGGUGAAGGCAUAGUCCAGGGAGCGGCGAAAGUCACACAAACCGG [C82U A111C C150A U176C] has a reverse-splicing fitness of 0.0276.
With GUGCCUUGCGCCGGGAAACCACGCAAGGGAUGGUGUCAAAUUCGGCGAAACCUAAGCGCCCGCCCGGGCGUAUGGCAACGCUGAGCCAAGCUUCGGCGCCUGCGCCGAUGCAGGUGUAGAGACUAGACGGCACCCACCUAAGGCAAACGAUAUGGUGAAGGCAUAGUCUAGGGAGAGGCGAAAGUCACACAAACCGG [C82U A111C C150A C169U U176A] the reverse-splicing fitness was 0.0166.
Variant GUGCCUUGCGCCGGGAAACCACGCAAGGGAUGGUGUCAAAUUCGGCGAAACCUAAGCGCCCGCCCGGGCGUAUGGCAACGCUGAGCCAAGCUUCGGCGCCUGCGCCGAUGCAGGUGUAGAGACUAGACGGCACCCACCUAAGGCAAACGAUAUGGUGAAGGCAUAGUCUAGGGAGCGGCGAAAGUCACACAAACCGG [C82U A111C C150A C169U U176C] has a reverse-splicing fitness of 0.0169.
With GUGCCUUGCGCCGGGAAACCACGCAAGGGAUGGUGUCAAAUUCGGCGAAACCUAAGCGCCCGCCCGGGCGUAUGGCAACGCUGAGCCAAGCUUCGGCGCCUGCGCCGAUGCAGGUGUAGAGACUAGACGGCACCCACCUAAGGCAAACGAUAUGGUGAAGGCAUAGUCUAGGGAGGGGCGAAAGUCACACAAACCGG [C82U A111C C150A C169U U176G] the reverse-splicing fitness was 0.00777.
With GUGCCUUGCGCCGGGAAACCACGCAAGGGAUGGUGUCAAAUUCGGCGAAACCUAAGCGCCCGCCCGGGCGUAUGGCAACGCUGAGCCAAGCUUCGGCGCCUGCGCCGAUGCAGGUGUAGAGACUAGACGGCACCCACCUAAGGCAAACGAUAUGGUGAAGGCAUAGUCGAGGGAGAGGCGAAAGUCACACAAACCGG [C82U A111C C150A C169G U176A] the reverse-splicing fitness was 0.0162.
GUGCCUUGCGCCGGGAAACCACGCAAGGGAUGGUGUCAAAUUCGGCGAAACCUAAGCGCCCGCCCGGGCGUAUGGCAACGCUGAGCCAAGCUUCGGCGCCUGCGCCGAUGCAGGUGUAGAGACUAGACGGCACCCACCUAAGGCAAACGAUAUGGUGAAGGCAUAGUCGAGGGAGGGGCGAAAGUCACACAAACCGG [C82U A111C C150A C169G U176G] showed a reverse-splicing fitness of 0.00835.
For GUGCCUUGCGCCGGGAAACCACGCAAGGGAUGGUGUCAAAUUCGGCGAAACCUAAGCGCCCGCCCGGGCGUAUGGCAACGCUGAGCCAAGCUUCGGCGCCUGCGCCGAUGCAGGUGUAGAGACUAGACGGCACCCACCUAAGGCAAACGAUAUGGUGAAGGCAUAGUCGAGGGAGCGGCGAAAGUCACACAAACCGG [C82U A111C C150A C169G U176C], the reverse-splicing fitness was 0.0236.
GUGCCUUGCGCCGGGAAACCACGCAAGGGAUGGUGUCAAAUUCGGCGAAACCUAAGCGCCCGCCCGGGCGUAUGGCAACGCUGAGCCAAGCUUCGGCGCCUGCGCCGAUGCAGGUGUAGAGACUAGACGGCACCCACCUAAGGCAAACGAUAUGGUGAAGGCAUAGUCGAGGGAGUGGCGAAAGUCACACAAACCGG [C82U A111C C150A C169G] showed a reverse-splicing fitness of 0.00852.
Variant GUGCCUUGCGCCGGGAAACCACGCAAGGGAUGGUGUCAAAUUCGGCGAAACCUAAGCGCCCGCCCGGGCGUAUGGCAACGCUGAGCCAAGCUUCGGCGCCUGCGCCGAUGCAGGUGUAGAGACUAGACGGCACCCACCUAAGGCAAACGAUAUGGUGAAGGCAUAGUCUAGGGAGUGGCGAAAGUCACACAAACCGG [C82U A111C C150A C169U] has a reverse-splicing fitness of 0.0106.
